{
  "source": "patent US20230228751",
  "about": "(APTAMER DIAGNOSTICS LIMITED, published 2023)",
  "assay_in_all_cases": "BLI",
  "key": {"[1]": {"molecular_target": "SARS-CoV-2 spike S1 subunit (SARS-CoV-2, UniProt P0DTC2 SEQ:1-670)", "settings": "tags: His tag, SinoBiological 40591-V08B1; label: 5'-biotin"}, "SARS-CoV-2 spike RBD": {"molecular_target": "SARS-CoV-2 spike RBD (SARS-CoV-2, UniProt P0DTC2 SEQ:1-223)", "settings": "tags: His tag, SinoBiological 40592-V08H"}, "[2]": {"molecular_target": "SARS-CoV spike S1 subunit (SARS-CoV, UniProt P59594 SEQ:14-667)", "settings": "tags: SinoBiological; label: 5'-biotin"}},
  "data": [
    {"binder": "S1_A3_F11 (ssDNA) DNA: CCAGTGTAGACTACTCAATGCGTGGGAAGGGTGGGTGGGAGCATTGATAACTC", "values": [
      {"measurement": "binding result", "setting": "[1]", "value": "binds"}
    ]},
    {"binder": "S1_A8_F13 (ssDNA) DNA: AATGCTGTGTTGACTTGATCCTGTGGTATATGGGTGGGAGGGTCGGGTACTATCCACAGGTCAAC", "values": [
      {"measurement": "binding result", "setting": "[1]", "value": "binds"}
    ]},
    {"binder": "S1_E3 (ssDNA) DNA: CCAGTGTAGACTACTCAATGCCGATGGGTCGGGTGGGTGGGTAGGCATTGATCGCTCCTCCGTACTATCCACAGGTCAACC", "values": [
      {"measurement": "binding result", "setting": "[1]", "value": "binds"},
      {"measurement": "binding result", "setting": "SARS-CoV-2 spike RBD; label: 5'-biotin", "value": "binds"},
      {"measurement": "binding result", "setting": "[2]", "value": "no binding"}
    ]},
    {"binder": "S1_A6_F12 (ssDNA) DNA: CCAGTGTAGACTACTCAATGCTGTTATGACTTGACCTTGGGTTATGGGTTTGGGCGGGAGGGTA", "values": [
      {"measurement": "binding result", "setting": "[1]", "value": "binds"}
    ]},
    {"binder": "CCAGTGTAGACTACTCAATGCGTGGGAAGGGTGGGTGGGAGCATTGAT (ssDNA)", "note": "[S1_A3_F10]", "values": [
      {"measurement": "binding result", "setting": "[1]", "value": "binds"}
    ]},
    {"binder": "GTATATGGGTGGGAGGGTCGGGTACTATCCACAGGTCAAC (ssDNA)", "note": "[S1_A8_F2]", "values": [
      {"measurement": "binding result", "setting": "[1]", "value": "binds"}
    ]},
    {"binder": "S1_A8_F14 (ssDNA) DNA: ACTTGATCCTGTGGTATATGGGTGGGAGGGTCGGGTACTATCCACAGGTCAAC", "values": [
      {"measurement": "binding result", "setting": "[1]", "value": "binds"}
    ]},
    {"binder": "S1_A6_F14 (ssDNA) DNA: ACTTGACCTTGGGTTATGGGTTTGGGCGGGAGGGTACTATCCACAGGTCAACC", "values": [
      {"measurement": "binding result", "setting": "[1]", "value": "binds"}
    ]},
    {"binder": "S1_A6_F13 (ssDNA) DNA: AATGCTGTTATGACTTGACCTTGGGTTATGGGTTTGGGCGGGAGGGTACTATCCACAGGTCAACC", "values": [
      {"measurement": "binding result", "setting": "[1]", "value": "binds"}
    ]},
    {"binder": "ACTTGATCCTGTGGTATATGGGTGGGAGGGTCGGGT (ssDNA)", "note": "[S1_A8_F20]", "values": [
      {"measurement": "binding result", "setting": "[1]", "value": "binds"}
    ]},
    {"binder": "S1_A3_F12 (ssDNA) DNA: CCAGTGTAGACTACTCAATGCGTGGGAAGGGTGGGTGGGAGCATTGATAACTCGGAGGAGTGTA", "values": [
      {"measurement": "binding result", "setting": "[1]", "value": "binds"}
    ]},
    {"binder": "GGTATATGGGTGGGAGGGTCGGGT (ssDNA)", "note": "[S1_A8_F22]", "values": [
      {"measurement": "binding result", "setting": "[1]", "value": "binds"}
    ]},
    {"binder": "AATGCGTGGGAAGGGTGGGTGGGAG (ssDNA)", "note": "[S1_A3_F17]", "values": [
      {"measurement": "binding result", "setting": "[1]", "value": "binds"}
    ]},
    {"binder": "S1_A3-B (ssDNA) DNA: CCAGTGTAGACTACTCAATGCCGATGGGTCGGGGGGGTGGGTAGGCATTGATCGCTCCTTTCGTACTATCCACAGGTCAACC", "values": [
      {"measurement": "binding result", "setting": "[1]", "value": "binds"},
      {"measurement": "binding result", "setting": "SARS-CoV-2 spike RBD; label: 5' biotin", "value": "binds"},
      {"measurement": "binding result", "setting": "[2]", "value": "no binding"}
    ]},
    {"binder": "S1_A8_F12 (ssDNA) DNA: CCAGTGTAGACTACTCAATGCTGTGTTGACTTGATCCTGTGGTATATGGGTGGGAGGGTCGGGT", "values": [
      {"measurement": "binding result", "setting": "[1]", "value": "binds"}
    ]},
    {"binder": "S1_C1-A (ssDNA) DNA: CCAGTGTAGACTACTCAATGCTGTGTTGACTTGATCCTGTGGTATTTGGGTGGGAGGGGCGGGTACTATCCACAGGTCAACC", "values": [
      {"measurement": "binding result", "setting": "[1]", "value": "binds"},
      {"measurement": "binding result", "setting": "SARS-CoV-2 spike RBD; label: 5' biotin", "value": "binds"},
      {"measurement": "binding result", "setting": "[2]", "value": "no binding"}
    ]},
    {"binder": "S1_D11-B (ssDNA) DNA: CCAGTGTAGACTACTCAATGCCGGCCGGGAGGGAGGGGTGGGTAAAGCCGCGCAACATATAGTACTATCCACAGGTCAACC", "values": [
      {"measurement": "binding result", "setting": "[1]", "value": "binds"},
      {"measurement": "binding result", "setting": "SARS-CoV-2 spike RBD; label: 5'-biotin", "value": "binds"},
      {"measurement": "binding result", "setting": "[2]", "value": "binds"}
    ]},
    {"binder": "CCAGTGTAGACTACTCAATGCGTGGGAAGGGTGGGTGGGA (ssDNA)", "note": "[S1_A3_F9]", "values": [
      {"measurement": "binding result", "setting": "[1]", "value": "binds"}
    ]}
  ]
}
